Data: US20040197809A1
Values joined by “and” are separate entries in the source; they are usually repeats but may differ in a detail not shown here. Equal entries are not always repeated.

How the values were obtained:
[1] = target: gp120, the major envelope glycoprotein of HIV-I (HIV-1); experiment: saturation binding of 125I-gp120 in solution, immunoprecipitation with OKT4, Scatchard analysis
[2] = target: HIV-1 strain HTLV-IIIB (virus) (HIV-1 strain HTLV-IIIB); experiment: cell-based or functional assay
[3] = target: gp120, the major envelope glycoprotein of HIV-I (HIV-1); experiment: gp120 binding by the method of Smith et al., Science 238:1704-07 (1987)
[4] = target: Fcγ receptor (determined with U937 cells) (Homo sapiens (Human)) (UniProt P12314); experiment: binding to Fcγ receptor on U937 cells, method of Anderson et al., J. Immunol. 125:2735-2741 (1980)
Chain of UniProt P12314 (P12314 16-374 limits assumed, form in doubt): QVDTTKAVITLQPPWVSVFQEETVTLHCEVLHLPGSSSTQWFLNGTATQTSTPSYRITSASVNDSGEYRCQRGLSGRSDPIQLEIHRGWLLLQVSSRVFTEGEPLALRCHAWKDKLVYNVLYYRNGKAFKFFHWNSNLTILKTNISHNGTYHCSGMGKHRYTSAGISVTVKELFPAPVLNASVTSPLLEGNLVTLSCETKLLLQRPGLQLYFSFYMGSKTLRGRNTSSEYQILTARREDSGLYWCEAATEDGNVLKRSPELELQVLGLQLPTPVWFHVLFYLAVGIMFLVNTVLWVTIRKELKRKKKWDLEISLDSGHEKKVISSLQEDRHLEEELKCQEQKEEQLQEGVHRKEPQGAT

Substance | Kd [1] | Indirect immunofluorescence (% positive cells), inhibitor supernatant 1:4 (% positive cells) [2] | Reverse transcriptase (cpm/ml × 10^5), inhibitor supernatant 1:4 [2] | Reverse transcriptase (cpm/ml × 10^5), inhibitor supernatant undil. [2] | Kd [3] | Kd [4] | Indirect immunofluorescence (% positive cells), inhibitor supernatant undil. (% positive cells) [2]
gDCD4T (signal peptide and first 27 residues of mature HSV type I gD glycoprotein fused to mature CD4T) (receptor) | 0.72 nM | 26.8 and 36.1 | 992000 cpm/ml and 1.13e+06 cpm/ml | 14000 cpm/ml and 23000 cpm/ml | – | – | –
CD44γ1 immunoadheson (CD4 to serine residue 366 fused to the constant region of human immunoglobulin γ1) (Fc fusion) | – | – | – | – | 1.2 nM | 2.83 nM | –
CD42γ1 immunoadheson (CD4 to glutamine residue 180 fused to the constant region of human immunoglobulin γ1) (Fc fusion) | – | – | – | – | 1.4 nM | 3.01 nM | –
bulk human IgG1 (antibody) | – | – | – | – | – | 3.52 nM | –
CD4T (CD4 fused after residue 368 of mature CD4 to 9 residues coded by pBR322 sequence) (from UniProt P01730 27-393) (receptor) | 0.83 nM | 18 and 16.1 | 372000 cpm/ml and 594000 cpm/ml | 11000 cpm/ml and 15000 cpm/ml | – | – | 0.4 and 0.8
